Assay results taken from patent publication US20030219740.

Legend:
[1] = target: carboxyl terminal APC fragment (UniProt P25054)
Chain of carboxyl terminal APC fragment (P25054 2168-2843): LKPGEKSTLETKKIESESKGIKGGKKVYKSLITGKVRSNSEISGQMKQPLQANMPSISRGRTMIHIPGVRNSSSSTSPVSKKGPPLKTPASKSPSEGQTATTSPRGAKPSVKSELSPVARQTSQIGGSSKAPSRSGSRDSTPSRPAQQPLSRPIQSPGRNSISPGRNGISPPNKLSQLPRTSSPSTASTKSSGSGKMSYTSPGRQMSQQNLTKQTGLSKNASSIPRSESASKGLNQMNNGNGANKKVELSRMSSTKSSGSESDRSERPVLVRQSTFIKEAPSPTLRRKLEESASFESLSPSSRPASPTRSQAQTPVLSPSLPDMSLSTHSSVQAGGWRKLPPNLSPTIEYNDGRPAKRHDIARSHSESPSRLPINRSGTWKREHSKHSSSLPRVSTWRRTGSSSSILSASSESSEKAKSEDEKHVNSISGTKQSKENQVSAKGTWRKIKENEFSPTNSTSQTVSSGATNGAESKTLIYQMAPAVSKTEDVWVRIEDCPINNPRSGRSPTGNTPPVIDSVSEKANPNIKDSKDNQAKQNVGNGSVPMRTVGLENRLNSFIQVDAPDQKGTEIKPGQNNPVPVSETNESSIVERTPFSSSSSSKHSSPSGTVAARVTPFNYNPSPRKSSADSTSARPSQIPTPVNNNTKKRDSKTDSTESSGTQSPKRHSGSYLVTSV

## MNSRPRRRDIDRLEHLHLTEFGLKLGQKIFLLNKRDFILFLSLF (enzyme) [CATX-2 protein]
poly-threonine
  phosphorylation in vitro (γ-32P): CATX-2 protein could phosphorylate histone 5 µg, poly-threonine 5 µg
[1]
  phosphorylation in vitro (γ-32P): CATX-2 protein could phosphorylate histone 5 µg, poly-threonine 5 µg, and COOH-APC fragment (1-5 µg)
histone
  phosphorylation in vitro (γ-32P): CATX-2 protein could phosphorylate histone 5 µg
